Measurements as given in patent US20220308072A1.

Columns and labels:
[1] = target: Recombinant, his tagged full length human frataxin protein (Abcam ab95502) (human) (UniProt Q16595); assay: Simoa sandwich 2-step; capture Ab-2; frataxin 55.6 pg/mL
[2] = target: Recombinant, his tagged full length human frataxin protein (Abcam ab95502) (human) (UniProt Q16595); assay: Simoa sandwich 2-step; capture Ab-1; frataxin 2.06 pg/mL
[3] = target: Recombinant, his tagged full length human frataxin protein (Abcam ab95502) (human) (UniProt Q16595); assay: Simoa sandwich 2-step; capture Ab-4
[4] = target: Recombinant, his tagged full length human frataxin protein (Abcam ab95502) (human) (UniProt Q16595); assay: Simoa sandwich 2-step; capture Ab-1; 150 pM SβG; frataxin 0.686 pg/mL
[5] = target: Recombinant, his tagged full length human frataxin protein (Abcam ab95502) (human) (UniProt Q16595); assay: Simoa sandwich 2-step; capture Ab-2; frataxin 2.06 pg/mL
[6] = target: Recombinant, his tagged full length human frataxin protein (Abcam ab95502) (human) (UniProt Q16595); assay: Simoa sandwich 2-step (120 min-5 min); capture Ab-1; frataxin 2000 pg/mL
[7] = target: Recombinant, his tagged full length human frataxin protein (Abcam ab95502) (human) (UniProt Q16595); assay: Simoa sandwich; capture Ab-1; no helper beads; frataxin 500 pg/mL
[8] = target: Recombinant, his tagged full length human frataxin protein (Abcam ab95502) (human) (UniProt Q16595); assay: Simoa sandwich 2-step; capture Ab-1; frataxin 18.5 pg/mL
[9] = target: Recombinant, his tagged full length human frataxin protein (Abcam ab95502) (human) (UniProt Q16595); assay: Simoa sandwich 3-step; capture Ab-3; frataxin 1000 pg/mL
[10] = target: Recombinant, his tagged full length human frataxin protein (Abcam ab95502) (human) (UniProt Q16595); assay: Simoa sandwich 2-step (120 min-5 min); capture Ab-1; Diluent 1 + 5% NCS; frataxin 0.274 pg/mL
[11] = target: Recombinant, his tagged full length human frataxin protein (Abcam ab95502) (human) (UniProt Q16595); assay: Simoa sandwich 2-step; capture Ab-1; 50 pM SβG; frataxin 500 pg/mL
[12] = target: Recombinant, his tagged full length human frataxin protein (Abcam ab95502) (human) (UniProt Q16595); assay: Simoa sandwich 2-step (120 min-5 min); capture Ab-1; Diluent 1 + 5% NCS; frataxin 1.37 pg/mL
[13] = target: Recombinant, his tagged full length human frataxin protein (Abcam ab95502) (human) (UniProt Q16595); assay: Simoa sandwich 2-step (120 min-5 min); capture Ab-1; Diluent 1 + 5% NCS; frataxin 333 pg/mL
[14] = target: Recombinant, his tagged full length human frataxin protein (Abcam ab95502) (human) (UniProt Q16595); assay: Simoa sandwich 2-step; capture Ab-1; frataxin 55.6 pg/mL
[15] = target: Recombinant, his tagged full length human frataxin protein (Abcam ab95502) (human) (UniProt Q16595); assay: Simoa sandwich 3-step; capture Ab-2; frataxin 1000 pg/mL
[16] = target: Recombinant, his tagged full length human frataxin protein (Abcam ab95502) (human) (UniProt Q16595); assay: Simoa sandwich 2-step (120 min-5 min); capture Ab-1; frataxin 24.7 pg/mL

UniProt Q16595, sequence (Q16595 42-210): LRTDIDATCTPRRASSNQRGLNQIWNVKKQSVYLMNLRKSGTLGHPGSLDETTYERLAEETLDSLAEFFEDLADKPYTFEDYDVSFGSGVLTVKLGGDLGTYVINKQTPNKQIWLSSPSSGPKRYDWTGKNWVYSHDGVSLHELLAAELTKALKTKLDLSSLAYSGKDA

For “Ab-3, mouse monoclonal [18A5DB1] to Frataxin (Abcam ab110328) (antibody)”, the Ave AEB [1] was 5.21 AEB, the S/B [1] was 54.6 and the Ave AEB [2] was 0.318 AEB. For the same substance, the S/B [2] was 3.06, the LOD [3] was 0.34 pg/mL and the Ave AEB [4] was 0.0717 AEB. It also gave a S/B [4] of 1.6, an Ave AEB [5] of 0.318 AEB and a S/B [5] of 3.33. It also gave an AEB rep1 [6] of 9.8 AEB, an AEB rep2 [6] of 10.1 AEB and an AEB rep3 [6] of 9.8 AEB. For the same substance, the Ave AEB [6] was 9.9 AEB, the S/B [6] was 1200 and the AEB Rep1 [7] was 7.94 AEB. The AEB Rep2 [7] was 5.08 AEB, the Ave AEB [7] was 6.51 AEB and the S/B [7] was 288. It also gave an Ave AEB [8] of 1.98 AEB, a S/B [8] of 19.1 and an Ave AEB [9] of 0.0854 AEB. It also gave a S/B [9] of 18.1, an Ave AEB [10] of 0.0228 AEB and a S/B [10] of 1.26. For the same substance, the Ave AEB [11] was 13.7 AEB, the S/B [11] was 747 and the Ave AEB [12] was 0.02 AEB. The S/B [12] was 1.82, the Ave AEB [13] was 3.06 AEB and the S/B [13] was 279. For the same substance, the Ave AEB [14] was 5.52 AEB, the S/B [14] was 53.2 and the Ave AEB [15] was 17.2 AEB. For the same substance, the S/B [15] was 388, the AEB rep1 [16] was 0.129 AEB and the AEB rep2 [16] was 0.117 AEB. It also gave an AEB rep3 [16] of 0.142 AEB, an Ave AEB [16] of 0.129 AEB and a S/B [16] of 15.7.
